Tests used:
[1] = test system: 2-aminobenzoyl-Thr-Ile-Nle-Phe(p-NO2)-Gln-Arg-NH2 (SEQ. ID NO. 4)
[2] = test system: Ac-Thr-Ile-Nle-Nle-Gln-Arg-NH2 (SEQ ID NO 1)

{Aba^67,95,167,195} HIV-1 PR
fluorogenic assay (fluorescence against time of incubation) [1]: showed identical activities

[(NHCH2COSCH2CO)^51-52 Aba^67,95] HIV-1 PR
fluorogenic assay (fluorescence against time of incubation) [1]: showed identical activities
cleavage of the peptide substrate (reverse phase HPLC; products identified by ion spray mass spectrometry) [2]: The peptide products were identified by ion spray mass spectrometry as (H)-Nle-Gln-Arg. NH2 (early eluting) and Ac-Thr-Ile-Nle-(OH) (late eluting)

From patent US6476190
